Laboratory results as given in patent US20200407447A1 (CEINGEBIOTECNOLOGIE AVANZATE FRANCO SALVATORE SCARL, published 2020).

Legend:
[1] = target: T1, human LAG-3/Fc recombinant chimeric protein (R&D Systems) (human, UniProt P18627 23-450); test: ELISA on coated recombinant LAG-3/Fc, mAb at increasing concentrations (apparent Kd, legend paragraph 26)
T1 construct: Bought from R&D Systems; also called rhLAG-3; recombinant protein/Fc
T1 sequence (looked up): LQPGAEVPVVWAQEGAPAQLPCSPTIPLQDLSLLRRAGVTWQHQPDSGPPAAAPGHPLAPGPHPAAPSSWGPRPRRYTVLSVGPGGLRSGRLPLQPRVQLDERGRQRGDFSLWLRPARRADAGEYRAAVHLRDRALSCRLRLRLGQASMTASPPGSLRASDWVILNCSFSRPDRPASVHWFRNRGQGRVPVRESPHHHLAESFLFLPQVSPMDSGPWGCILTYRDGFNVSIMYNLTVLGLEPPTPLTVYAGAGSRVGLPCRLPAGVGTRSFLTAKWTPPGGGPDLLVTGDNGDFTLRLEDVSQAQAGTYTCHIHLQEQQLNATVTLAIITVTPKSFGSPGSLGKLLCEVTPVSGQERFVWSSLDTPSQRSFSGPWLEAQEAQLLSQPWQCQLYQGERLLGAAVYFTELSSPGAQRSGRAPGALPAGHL
Experimental: (§1) FIG. 2: Binding affinity of the selected antibodies for lymphocytes. The ELISA assays were performed with mAbs used at increasing concentrations (7.5 nM, 25 nM, 50 nM, 100 nM) on activated hPBMCs (black curves) or untreated hPBMCs (grey curves).
(§2) To confirm the binding specificity of the purified mAbs, ELISA assays were performed on chimeric proteins (coated at 5 μg/ml), tumor cells (PD-L1-positive breast cancer MDA-MB-231 cells or PD-L1-negative breast cancer MCF7), and untreated or activated hPBMCs. The ELISA assays on coated chimeric protein were performed by coating Nunc™ flat-bottom 96-well plates (Fisher Scientific, Thermo Fisher Scientific) with 5 μg/ml […], […] and rhLAG-3 recombinant proteins in a solution of 0.05 M NaHCO₃ for 72 hours at 37° C. […] After extensive washes with PBS, the plates were incubated with (HRP)-conjugated anti-human IgG (Fab′)2 goat monoclonal antibody (Abcam, Cambridge, UK) for 1 hour, washed again and incubated with TMB reagent for 10 min before quenching with an equal volume of 1N HCl.

[2] = target: T2, human LAG-3 on activated hPBMCs (human, UniProt P18627 23-525); test: cell ELISA on activated hPBMCs (apparent Kd, legend paragraph 26)
T2 construct: whole, on cells; also called cognate receptor expressed on hPBMCs
T2 sequence (looked up): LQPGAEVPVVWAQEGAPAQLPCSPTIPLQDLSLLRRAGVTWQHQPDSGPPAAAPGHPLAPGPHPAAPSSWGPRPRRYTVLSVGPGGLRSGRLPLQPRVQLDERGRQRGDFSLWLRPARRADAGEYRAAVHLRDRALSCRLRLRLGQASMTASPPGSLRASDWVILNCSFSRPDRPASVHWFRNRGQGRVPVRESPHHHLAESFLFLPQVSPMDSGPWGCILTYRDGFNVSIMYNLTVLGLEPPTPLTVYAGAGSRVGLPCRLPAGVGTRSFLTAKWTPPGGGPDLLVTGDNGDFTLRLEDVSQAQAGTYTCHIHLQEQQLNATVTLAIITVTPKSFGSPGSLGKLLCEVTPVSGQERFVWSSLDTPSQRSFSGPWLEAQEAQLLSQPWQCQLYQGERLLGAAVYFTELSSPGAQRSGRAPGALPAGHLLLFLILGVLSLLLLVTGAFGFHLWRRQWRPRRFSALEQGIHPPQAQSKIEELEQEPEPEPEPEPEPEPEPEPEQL
Experimental: as §1
(§3) Plates were then centrifuged, cell pellets were washed with PBS and incubated with HRP-conjugated anti-human IgG goat polyclonal antibody for 1 hour at room temperature. Following additional washes in PBS 1×, TMB reagent was added for 10 min before quenching with an equal volume of 1N HCl. Absorbance at 450 nm was measured by the Envision plate reader (Perkin Elmer, Waltham, Mass., USA).

[3] = target: T3, human PD-L1/Fc recombinant chimeric protein (R&D Systems) (human, UniProt Q9NZQ7 19-239); test: ELISA on coated recombinant PD-L1/Fc, mAb at increasing concentrations (apparent Kd, legend paragraph 26) [continued]
T3 construct: Bought from R&D Systems; also called recombinant protein/Fc
Experimental: as §1, §2

[4] = target: T4, human PD-L1 on cells (activated hPBMCs; MDA-MB-231 tumor cells) (human, UniProt Q9NZQ7 19-290); test: cell ELISA on activated hPBMCs (apparent Kd, legend paragraph 26) [continued]
T4 construct: whole, on cells; also called PD-L protein
Experimental: as §1, §3

[5] = target: T4, human PD-L1 on cells (activated hPBMCs; …); test: cell ELISA on MDA-MB-231 tumor cells expressing PD-L1 (apparent Kd) [continued]
Experimental: as §3

[6] = target: T5, human PD-1 on activated hPBMCs (human, UniProt Q15116 25-288); test: cell ELISA on activated hPBMCs (apparent Kd, legend paragraph 26) [continued]
T5 construct: whole, on cells; also called cognate receptor expressed on hPBMCs
Experimental: as §1, §3

[7] = target: T6, human PD-1/Fc recombinant chimeric protein (R&D Systems) (human, UniProt Q15116 25-167); test: ELISA on coated recombinant PD-1/Fc, mAb at increasing concentrations (apparent Kd, legend paragraph 26) [continued]
T6 construct: Bought from R&D Systems; also called rhPD-1; recombinant protein/Fc
Experimental: as §1, §2

[8] = target: T4, human PD-L1 on cells (activated hPBMCs; …); test: flow cytometry on hPBMCs activated with anti-CD3/CD28 beads, MFI against IgG concentration
Experimental: Human PBMCs isolated from healthy donors were activated with anti-CD3/CD28 beads to stimulate PD-L1 expression.
The human peripheral blood mononuclear cells (hPBMCs) isolated from healthy donors were thawed in RPMI 1640 medium (Gibco), supplemented with 2 mM L-glutamine, 10% (v/v) CTL wash supplement (CTL, Shaker Heights, Ohio, USA), 100 U/ml Benzonase (Merck Millipore, Burlington, Mass., United States). After centrifugation at 1200 rpm for 10 min, they were resuspended in complete RPMI medium supplemented with 10% (v/v) heat-inactivated fetal bovine serum (FBS, Sigma), 2 mM L-glutamine, 100 U/ml penicillin and 100 µg/ml streptomicin (Gibco), HEPES 10 mM (Gibco). After resting for 16 h at 37° C. in a humidified atmosphere with 5% CO2, hPBMCs were counted, resuspended at a concentration of 10\hat{ }6 viable cells/ml in complete RPMI medium (as above) and activated with Dynabeads Human T-Activator CD3/CD28 (Gibco), 25 μl beads/10\hat{ }6 viable cells. 24 h post activation, the cells were centrifuged and plated at 4×10\hat{ }5 cells/well in PBS in a 96 well plate with round bottom. After one wash in PBS, they were incubated with 50 μl LIVE/DEAD™ Fixable Violet Dead Cell Stain (Invitrogen) for 30 min at +4° C. and washed once again.

T4 sequence (Q9NZQ7 19-290): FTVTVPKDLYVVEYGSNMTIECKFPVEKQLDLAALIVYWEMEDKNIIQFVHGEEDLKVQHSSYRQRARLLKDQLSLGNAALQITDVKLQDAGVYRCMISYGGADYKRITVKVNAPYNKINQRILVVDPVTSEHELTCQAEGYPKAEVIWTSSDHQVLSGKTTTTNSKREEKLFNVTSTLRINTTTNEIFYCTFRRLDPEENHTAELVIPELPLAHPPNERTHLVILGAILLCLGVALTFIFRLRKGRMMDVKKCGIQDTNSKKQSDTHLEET
T6 sequence (Q15116 25-167, change not shown): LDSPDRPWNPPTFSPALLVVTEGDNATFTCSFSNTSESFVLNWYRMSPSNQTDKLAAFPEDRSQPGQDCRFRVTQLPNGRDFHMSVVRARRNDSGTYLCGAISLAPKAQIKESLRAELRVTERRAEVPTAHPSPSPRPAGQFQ
T5 sequence (Q15116 25-288): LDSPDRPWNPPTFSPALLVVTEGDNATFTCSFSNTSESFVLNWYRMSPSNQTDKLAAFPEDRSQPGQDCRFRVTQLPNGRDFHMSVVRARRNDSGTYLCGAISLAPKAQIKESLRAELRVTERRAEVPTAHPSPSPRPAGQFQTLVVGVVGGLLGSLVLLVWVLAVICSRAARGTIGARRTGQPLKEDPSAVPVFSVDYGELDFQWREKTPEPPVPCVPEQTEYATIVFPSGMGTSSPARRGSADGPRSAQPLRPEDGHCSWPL
T3 sequence (Q9NZQ7 19-239, change not shown): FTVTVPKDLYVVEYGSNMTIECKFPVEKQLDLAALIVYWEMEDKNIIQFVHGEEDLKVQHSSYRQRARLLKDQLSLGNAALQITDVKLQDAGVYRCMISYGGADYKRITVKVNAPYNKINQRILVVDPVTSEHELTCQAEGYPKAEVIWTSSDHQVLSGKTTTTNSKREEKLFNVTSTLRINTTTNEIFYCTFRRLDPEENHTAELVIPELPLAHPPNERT

B1: LAG-3_C (antibody, human IgG4, V domains shown)
VH: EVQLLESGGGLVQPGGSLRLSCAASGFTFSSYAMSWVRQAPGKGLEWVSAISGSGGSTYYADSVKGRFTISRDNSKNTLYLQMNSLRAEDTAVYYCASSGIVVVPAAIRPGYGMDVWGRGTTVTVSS
VL: AQAVLTQPSSVSGAPGQRVTISCTGSSSNIGAGYDVHWYQQLPGTAPKLLIYGNNNRPSGVPDRFSGSKSGTSASLAITGLQPEDEADYYCQSYDFGLSRVFGGGTKLTVL
notes: also called mAb LAG-3_C
B1 gave a Kd [1] of 52 nM and a Kd [2] of 2.6 nM.

B2: PD-L1_B (antibody, V domains shown)
VH: QVQLVQSGAEVKKPGSSVEVSCKVSGNTVIGYAVSWVRQAPGQGPEWMGRLIPSVGLTNYAQKFQDRLTFTADTSTSTVTMALSSLTSEDTAMYYCARDVSPAVPVSQYWGQGTLVTVSS
VL: AQSVLTQPPSVSAAPGQKVIISCSGDSFNIGSHSVSWYKQLPGSAPKLLIYENNVRPSGIPDRFSGSKSGTSATLGITGLQTRDEADYYCGAWDSSLNGHWVFGGGTQLTVL
notes: also called mAb PD-L1_B
B2 was tested, and the Kd [3] was 0.46 nM, the Kd [4] was 0.1 nM and the Kd [5] was 0.74 nM.

B3: PD-1_B (antibody, V domains shown)
VH: QVQLVQSGAEVKKPGASVKVSCKASGYTFTSYGISWVRQAPGQGLEWMGWISAYNGNTNYAQKLQGRVTMTTDTSTSTAYMELRSLRSDDTAVYYCARDFGSGSYYDLDYWGQGTMVTVSS
VL: ANFMLTQPHSVSESPGKTVTISCTGSSGSIASNYVQWYQQRPGSAPTTVIYEDNQRPSGVPDRFSGSIDSSSNSASLTISGLKTEDEADYYCQSYDSNNHWVFGGGTKLTVL
notes: also called mAb PD-1_B
Binder B3 has a Kd [6] of 0.6 nM and a Kd [7] of 0.29 nM.

B4: PD-1_A (antibody, V domains shown)
VH: QVQLQESGPGVVKPSGTLSLTCAISGGSIGSGGSIRSTRWWSWVRQSPGKGLEWIGEIYHSGSTNYNPSLKSRVTISLDKSRNHFSLRLNSVTAADTAVYYCARQDYGDSGDWYFDLWGKGTLVTVSS
VL: AQAVLTQPSSVSGAPGQRVTISCTGSSSNIGAGYDVHWYQQLPGTAPKLLIYGNNNRPSGVPDRFSGSKSGTSASLAITGLQTEDEADYYCQSYDNSLSGEVFGGGTKVTVL
notes: also called mAb PD-1_A; anti-PD-1 antibody PD-1_A
Binder B4 has a Kd [6] of 0.14 nM and a Kd [7] of 0.15 nM.

B5: LAG-3_A (antibody, human IgG4, V domains shown)
VH: EVQLLESGGGLVQPGGSLRLSCAASGFTFSSYAMSWVRQAPGKGLEWVSAISGSGGSTYYADSVKGRFTISRDNSKDTLYLQMNSLRAEDTAVYYCARDGPLYDISAGFVPISYYLDYWGQGTTVTVSS
VL: AQPVLTQPPSASGTPGQRVTISCSGSFSNIGSNYVFWYQQLPGTAPKLLISGNNQRPSGVPDRFSGSKSGTSASLAISGLRSQDEADYYCATWDDSLRGWVFGGGTKLTVL
notes: also called mAb LAG-3_A
For B5, the Kd [1] was 38 nM and the Kd [2] was 6 nM.

B6: LAG-3_D (antibody, V domains shown)
VH: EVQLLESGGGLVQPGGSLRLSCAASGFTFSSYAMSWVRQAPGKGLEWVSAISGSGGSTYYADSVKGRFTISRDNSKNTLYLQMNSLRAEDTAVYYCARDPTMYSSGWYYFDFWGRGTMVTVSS
VL: ALSYVLTQPPSVSEAPRQRVTISCSGSSSNIGNNAVNWYQQLPGKAPKLLIYYDDLLPSGVSDRFSGSKSGTSASLAISGLQSEDEADYYCATWDDSLNGQVFGTGTKLTVL
With B6 the Kd [1] was 24 nM and the Kd [2] was 19 nM.

B7: PD-L1_E (antibody, V domains shown)
VH: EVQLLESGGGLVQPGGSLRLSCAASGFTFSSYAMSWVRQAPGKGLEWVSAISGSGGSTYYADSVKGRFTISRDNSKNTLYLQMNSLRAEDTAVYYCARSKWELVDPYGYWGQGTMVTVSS
VL: ANFMLTQPHSVSESPGKTITISCTRSSGSIAGNYVQWYQQRPGSAPIIVIYEDNQRPSGVPDRFSGSIDSSSNSASLTISRLKTEDEADYYCQSYEASNVVFGGGTKLTVL
notes: Tested as a mAb detected with anti-human IgG Fc
B7: binds [8].

B8: PD-L1_C (antibody, V domains shown)
VH: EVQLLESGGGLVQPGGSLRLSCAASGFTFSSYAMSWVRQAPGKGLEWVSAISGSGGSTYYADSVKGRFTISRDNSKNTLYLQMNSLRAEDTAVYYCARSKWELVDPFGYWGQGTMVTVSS
VL: B7 VL
notes: as for B7
For B8, the “EC50 (read off the curve)” value [8] was roughly 2 nM.
